# Ends that are not written are not given here.
# Target: collagen scaffold (bovine collagen type I) (bovine, UniProt P02453 162-1217; P02465 80-1117)
# Test: cell-based or functional assay
# Sequence of collagen scaffold (bovine collagen type I) (P02453 162-1217, chain 1 of 2): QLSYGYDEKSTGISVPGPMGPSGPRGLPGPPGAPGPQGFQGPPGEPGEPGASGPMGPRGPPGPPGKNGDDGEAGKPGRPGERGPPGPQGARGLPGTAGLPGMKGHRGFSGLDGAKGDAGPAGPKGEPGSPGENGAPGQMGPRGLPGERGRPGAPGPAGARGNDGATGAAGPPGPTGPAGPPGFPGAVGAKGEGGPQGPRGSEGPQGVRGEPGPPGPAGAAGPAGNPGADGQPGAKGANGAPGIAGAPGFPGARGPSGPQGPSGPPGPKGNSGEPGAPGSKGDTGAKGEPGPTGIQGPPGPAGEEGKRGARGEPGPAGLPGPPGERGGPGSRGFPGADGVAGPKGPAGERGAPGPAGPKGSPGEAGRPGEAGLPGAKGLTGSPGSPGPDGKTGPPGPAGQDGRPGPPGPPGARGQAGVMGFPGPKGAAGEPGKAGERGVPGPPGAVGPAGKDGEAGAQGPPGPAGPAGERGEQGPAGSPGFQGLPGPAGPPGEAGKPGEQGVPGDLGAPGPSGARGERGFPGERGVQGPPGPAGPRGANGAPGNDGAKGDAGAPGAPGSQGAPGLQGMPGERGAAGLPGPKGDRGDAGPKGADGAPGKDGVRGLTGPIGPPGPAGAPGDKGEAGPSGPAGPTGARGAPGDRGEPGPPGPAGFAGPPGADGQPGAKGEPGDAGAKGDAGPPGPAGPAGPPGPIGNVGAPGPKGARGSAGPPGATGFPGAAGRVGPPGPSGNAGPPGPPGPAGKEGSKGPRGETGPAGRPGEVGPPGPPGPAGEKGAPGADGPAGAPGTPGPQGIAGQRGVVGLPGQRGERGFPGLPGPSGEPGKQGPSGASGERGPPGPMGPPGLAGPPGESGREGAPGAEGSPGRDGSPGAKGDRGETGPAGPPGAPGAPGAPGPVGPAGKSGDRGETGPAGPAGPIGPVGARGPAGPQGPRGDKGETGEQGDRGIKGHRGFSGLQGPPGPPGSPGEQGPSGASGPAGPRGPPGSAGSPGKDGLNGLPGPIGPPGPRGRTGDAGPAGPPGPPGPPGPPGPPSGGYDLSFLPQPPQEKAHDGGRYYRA
# Sequence of collagen scaffold (bovine collagen type I) (P02465 80-1117, chain 2 of 2): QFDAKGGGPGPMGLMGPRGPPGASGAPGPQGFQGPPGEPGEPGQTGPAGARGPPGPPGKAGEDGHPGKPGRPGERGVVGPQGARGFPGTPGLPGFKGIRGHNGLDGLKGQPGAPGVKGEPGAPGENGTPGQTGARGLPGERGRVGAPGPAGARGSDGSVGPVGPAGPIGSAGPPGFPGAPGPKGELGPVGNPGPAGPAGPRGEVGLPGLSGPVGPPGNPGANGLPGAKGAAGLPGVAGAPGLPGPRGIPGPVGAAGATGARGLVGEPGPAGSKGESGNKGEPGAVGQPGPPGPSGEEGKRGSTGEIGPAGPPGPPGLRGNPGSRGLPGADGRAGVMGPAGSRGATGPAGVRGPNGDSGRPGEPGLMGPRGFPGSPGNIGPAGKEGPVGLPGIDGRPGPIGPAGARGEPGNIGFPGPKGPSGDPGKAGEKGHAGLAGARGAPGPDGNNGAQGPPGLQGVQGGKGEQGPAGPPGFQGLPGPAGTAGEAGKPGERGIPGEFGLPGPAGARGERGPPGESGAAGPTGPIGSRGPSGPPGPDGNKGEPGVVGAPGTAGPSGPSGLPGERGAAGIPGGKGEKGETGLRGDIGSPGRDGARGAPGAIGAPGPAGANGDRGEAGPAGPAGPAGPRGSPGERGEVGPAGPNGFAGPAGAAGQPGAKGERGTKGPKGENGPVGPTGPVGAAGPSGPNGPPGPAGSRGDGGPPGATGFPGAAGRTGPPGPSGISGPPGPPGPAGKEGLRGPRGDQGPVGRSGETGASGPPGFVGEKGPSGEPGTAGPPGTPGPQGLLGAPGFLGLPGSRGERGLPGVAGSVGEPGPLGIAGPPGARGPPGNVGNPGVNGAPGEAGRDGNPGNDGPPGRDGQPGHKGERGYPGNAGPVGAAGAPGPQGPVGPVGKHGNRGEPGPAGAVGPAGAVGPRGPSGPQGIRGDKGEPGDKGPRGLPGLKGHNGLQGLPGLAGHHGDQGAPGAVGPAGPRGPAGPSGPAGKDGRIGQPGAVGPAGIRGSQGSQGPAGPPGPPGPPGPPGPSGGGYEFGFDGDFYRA
binder,measurement,value
GIGDPVTCLKSGAICHPVFCPRRYKQIGTCGLPGTKCCKKP (ends and bridges not checked; cysteine pairing not given here) [human β-defensin-2],"hBD2 released by the collagen scaffold (agar diffusion assay, zone of inhibition, 10 µg hβD2)",40%
same,"hBD2 retarded by the collagen scaffold (agar diffusion assay, zone of inhibition, 10 µg hβD2)",60%
same,"killing of the bacteria, collagen scaffold treated with 5 µg HAS, 4 µg hβD2, microdilution assay",100%
same,"killing rate, collagen scaffold treated with 5 µg BSA, 4 µg hβD2, microdilution assay",98%
same,"killing rate, collagen scaffold without gelatine (unblocked), 4 µg hβD2, microdilution assay",86%
same,"killing, collagen scaffold pre-treated with 10 µl of a 0.1% gelatine solution, 4 µg hβD2, microdilution assay",94%
